Data set [1] addresses T1, DNA polymerase alpha catalytic core (p180, hPolα) (Homo sapiens, UniProt P09884 338-1259). In words: fluorescence anisotropy; 5 mM MgCl2, no dNTP; 50 mM Bis-Tris pH 6.5, 100 mM NaCl, 5 mM MgCl2, 23 °C; 2 nM labeled duplex, 0.1-16000 nM protein, >30 min. The settings on record: protein: recombinant; tags: N-terminal His6-SUMO (His6-SMT) removed by SUMO protease; label: 5' 6-FAM on template; template 5' overhang 20 nt, one replicative end.

The target in data set [2] is T1, DNA polymerase alpha catalytic core …. In words: X-ray crystallography (3.3 Å); crystallized with Mg2+ and dCTP; neither bound in active site (binary complex); 50 mM Bis-Tris pH 6.5, 100 mM NaCl, 5 mM MgCl2, 23 °C; 2 nM labeled duplex, 0.1-16000 nM protein, >30 min. Conditions: protein: recombinant; tags: N-terminal His6-SUMO (His6-SMT) removed by SUMO protease; template 5' overhang 5 nt, one replicative end.

T1 sequence (P09884 338-1259): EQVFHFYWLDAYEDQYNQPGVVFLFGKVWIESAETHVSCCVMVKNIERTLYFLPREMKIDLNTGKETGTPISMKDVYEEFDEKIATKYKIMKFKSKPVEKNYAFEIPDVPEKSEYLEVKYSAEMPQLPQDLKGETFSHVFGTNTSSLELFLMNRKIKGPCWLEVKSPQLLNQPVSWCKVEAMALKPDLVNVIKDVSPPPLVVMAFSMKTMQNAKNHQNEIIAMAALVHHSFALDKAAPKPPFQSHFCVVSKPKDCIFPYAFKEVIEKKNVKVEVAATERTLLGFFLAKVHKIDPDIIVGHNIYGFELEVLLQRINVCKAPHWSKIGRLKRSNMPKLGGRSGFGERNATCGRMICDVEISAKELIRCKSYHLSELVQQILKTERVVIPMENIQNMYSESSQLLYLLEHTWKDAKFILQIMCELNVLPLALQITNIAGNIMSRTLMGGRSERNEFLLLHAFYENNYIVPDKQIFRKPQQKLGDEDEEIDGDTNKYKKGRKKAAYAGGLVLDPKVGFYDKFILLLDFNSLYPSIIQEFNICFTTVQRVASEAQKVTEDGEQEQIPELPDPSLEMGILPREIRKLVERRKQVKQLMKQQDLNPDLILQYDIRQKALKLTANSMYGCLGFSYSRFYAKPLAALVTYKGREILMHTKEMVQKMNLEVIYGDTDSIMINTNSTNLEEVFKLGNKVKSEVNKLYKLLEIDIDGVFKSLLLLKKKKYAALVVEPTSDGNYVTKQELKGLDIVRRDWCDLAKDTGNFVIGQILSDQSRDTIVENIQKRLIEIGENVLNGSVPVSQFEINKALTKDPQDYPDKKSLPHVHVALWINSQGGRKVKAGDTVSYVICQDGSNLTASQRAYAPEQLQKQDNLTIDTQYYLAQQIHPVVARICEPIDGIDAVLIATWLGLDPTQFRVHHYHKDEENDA

B1: 10-nt RNA primer/30-nt DNA template (DNA:RNA)
DNA: CTTAGGATGGAGAAAGGTAAGATGAAGCCG
RNA: CGGCUUCAUC
Take B1: the equilibrium dissociation constant (Kd) in data set [1] was approximately 320 nM.

B2: 10-nt DNA primer/30-nt DNA template (dsDNA)
DNA 1: CTTAGGATGGAGAAAGGTAAGATGAAGCCG
DNA 2: CGGCTTCATC
With B2, in data set [1], the Kd was approximately 430 nM.

B3: 13-nt DNA primer/18-nt DNA template (dsDNA)
DNA 1: TAATGGTAGGGGAAGGAT
DNA 2: ATCCTTCCCCTAC
modifications: primer 3'-terminal dideoxycytosine
As for B3, the binding result in data set [2] is recorded as “binds”.

For the origin of these results see paper PMC4817131, “Human DNA polymerase α in binary complex with a DNA:DNA template-primer”.
